Data published in patent US20240141039A1 (AGENUS, published 2024).
Blank lines part the entries; values can stand above or below the binder they belong to.

Assays:
[1] = molecular target: T1, wild type full-length cynomolgus monkey TIGIT expressed on CHO cells (cynomolgus monkey, UniProt A0A7N9I9V4 89-312); assay: flow cytometry, cynomolgus TIGIT CHO cells, geomean of 2 experiments
T1 construct: whole, on cells; also called cynomolgus TIGIT-CHO cells

[2] = molecular target: T2, full-length ECD of cynomolgus monkey TIGIT (His-tagged) (cynomolgus monkey); assay: SPR Biacore T200, geomean of experiments #1 and #2
T2 construct: also called His-tagged cynomolgus monkey TIGIT; cyno TIGIT extracellular domain
Procedure: (§1) Briefly, surface plasmon resonance experiments were performed using a Biacore T200 instrument, and the association rate (kₐ), dissociation rate (kd), and dissociation constant (KD) were calculated from each experiment using a 1:1 binding model with Biacore T200 Evaluation Software.
(§2) Multispecific molecules were captured using a 30-sec injection at a flow rate of 10 μl/min to reach about 350 resonance units (RUs). […] The sensor chip was regenerated between cycles with two 30-sec injections of 10 mM glycine, pH 1.5. Sensorgrams were evaluated and fit to a simple Langmuir 1:1 interaction model using the global data analysis option of BIAevaluation 3.0 software. Data quality was verified by visually inspecting deviations and curve fitting, and by evaluating the parameters of Rₘₐₓ, Chi2, and Tc.

[3] = molecular target: T3, full-length isoform 2 ECD of human CD96 with a C89S mutation (His-tagged) (human, UniProt P40200 22-519); assay: SPR Biacore T200, geomean of experiments #1 and #2
T3 construct: also called His-tagged isoform 2 of human CD96 with a C89S mutation; human CD96 extracellular domain isoform 2 C89S
T3 sequence: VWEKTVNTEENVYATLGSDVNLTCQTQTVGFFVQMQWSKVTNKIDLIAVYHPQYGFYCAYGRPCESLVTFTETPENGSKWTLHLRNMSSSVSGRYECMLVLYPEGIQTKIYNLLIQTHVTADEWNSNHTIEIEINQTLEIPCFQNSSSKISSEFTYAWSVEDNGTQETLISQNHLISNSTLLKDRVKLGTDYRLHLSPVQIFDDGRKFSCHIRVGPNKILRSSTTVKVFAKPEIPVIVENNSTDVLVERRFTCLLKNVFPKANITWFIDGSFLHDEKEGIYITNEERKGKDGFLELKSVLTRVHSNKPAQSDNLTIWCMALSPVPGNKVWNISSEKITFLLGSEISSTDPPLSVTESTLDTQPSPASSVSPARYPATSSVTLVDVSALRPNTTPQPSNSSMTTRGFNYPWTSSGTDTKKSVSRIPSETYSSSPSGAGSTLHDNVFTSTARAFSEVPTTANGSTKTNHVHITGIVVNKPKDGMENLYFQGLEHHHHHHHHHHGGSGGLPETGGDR
Procedure: as §1, §2

[4] = molecular target: T2, full-length ECD of cynomolgus monkey …; assay: SPR Biacore T200, Protein A capture, 1:1 model, experiment #1
Procedure: as §1, §2

[5] = molecular target: T3, full-length isoform 2 ECD of human CD96 …; assay: as above
Procedure: as §1, §2

[6] = molecular target: T4, wild type full-length human CD96 isoform 2 expressed on CHO cells (human, UniProt P40200-2 22-569); assay: flow cytometry, blocking of CD155-Fc-PE binding to human CD96 (isoform 2) CHO cells, geomean of 3 experiments
T4 construct: whole, on cells; also called human CD96-CHO (isoform 2); human CD96 (iso2) CHO cells
T4 sequence (looked up): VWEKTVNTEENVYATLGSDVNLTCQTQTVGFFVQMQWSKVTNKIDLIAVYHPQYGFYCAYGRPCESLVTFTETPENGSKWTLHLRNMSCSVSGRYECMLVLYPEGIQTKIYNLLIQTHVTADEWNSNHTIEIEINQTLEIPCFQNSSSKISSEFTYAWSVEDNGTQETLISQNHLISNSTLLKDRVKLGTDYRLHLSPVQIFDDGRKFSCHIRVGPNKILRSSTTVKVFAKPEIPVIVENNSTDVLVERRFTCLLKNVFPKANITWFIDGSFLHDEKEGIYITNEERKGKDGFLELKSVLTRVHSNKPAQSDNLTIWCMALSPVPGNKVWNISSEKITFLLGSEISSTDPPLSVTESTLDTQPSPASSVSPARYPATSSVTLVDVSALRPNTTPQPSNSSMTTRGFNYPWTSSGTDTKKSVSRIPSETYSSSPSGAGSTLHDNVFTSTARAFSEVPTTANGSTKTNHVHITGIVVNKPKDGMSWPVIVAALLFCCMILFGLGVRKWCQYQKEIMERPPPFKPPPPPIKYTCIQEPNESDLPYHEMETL
Procedure: A 4× concentrated intermediate stock of each multispecific molecule was prepared in a microplate. Antibodies were serially diluted 1-to-3 in FACS buffer. […] Lastly, 25 μL of wild type human CD96-CHO cells (isoform 2), prepared as described above, were added to each well. After a 30-minute incubation on ice, the cells were washed twice with cold FACS Buffer, and the cells were analyzed by flow cytometry (BD LSR Fortessa Flow Cytometer). The data were analyzed using the FlowJo software by sequentially gating on the FSC-A vs. SSC-A and SSC-H vs. SSC-A. Mean fluorescence intensity (MFI) values for PE were calculated, and the data were plotted by GraphPad Prism software and analyzed as described above.

T1 sequence (A0A7N9I9V4 entry or part of it): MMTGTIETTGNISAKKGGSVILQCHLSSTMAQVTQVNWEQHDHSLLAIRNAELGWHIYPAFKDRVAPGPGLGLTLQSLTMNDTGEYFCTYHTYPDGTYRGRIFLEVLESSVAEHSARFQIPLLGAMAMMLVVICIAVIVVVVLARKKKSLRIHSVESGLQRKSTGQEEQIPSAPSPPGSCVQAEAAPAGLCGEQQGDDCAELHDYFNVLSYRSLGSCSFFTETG

EC50 [1]: 0.165 mg/L
Kd [2]: 0.0045 µM
Kd [3]: 0.0819 µM
Kd [4]: 0.00478 µM
koff [4]: 0.00132 s⁻¹
kon [4]: 277000 M⁻¹ s⁻¹
Kd [5]: 0.079 µM
koff [5]: 0.00125 s⁻¹
kon [5]: 15800 M⁻¹ s⁻¹
IC50 [6]: 5.63 mg/L
B1: anti-TIGIT×CD96 multispecific molecule BA123 (bispecific antibody, human IgG1, kappa, lambda)
heavy 1: QVQLVQSGAEVKKPGASVKVSCKASGYTFTSYGISWVRQAPGQGLEWMGWISAYNANTNYAQKLQGRVTMTTDTSTSTAYMELRSLRSDDTAVYYCARSAGVLGGMDVWGRGTLVTVSSASTKGPSVFPLAPSSKSTSGGTAALGCLVKDYFPEPVTVSWNSGALTSGVHTFPAVLQSSGLYSLSSVVTVPSSSLGTQTYICNVNHKPSNTKVDKRVEPKSCDKTHTCPPCPAPELLGGPDVFLFPPKPKDTLMISRTPEVTCVVVDVSHEDPEVKFNWYVDGVEVHNAKTKPREEQYNSTYRVVSVLTVLHQDWLNGKEYKCKVSNKALPAPIEKTISKAKGQPREPQVYTLPPSREEMTKNQVSLSCAVKGFYPSDIAVEWESNGQPENNYKTTPPVLDSDGSFFLVSKLTVDKSRWQQGNVFSCSVMHEALHNHYTQKSLSLSPG
light 1: not shown
heavy 2: EVQLVQSGAEVKKPGSSVKVSCKASGYTFASYGISWVRQAPGQGLEWMGGITPFFNRVDVAEKFQGRVTITADKSTSTAYIELSSLRSEDTAVYYCARDLRRGGVGDAFDIWGRGTLVTVSSASTKGPSVFPLAPSSKSTSGGTAALGCLVKDYFPEPVTVSWNSGALTSGVHTFPAVLQSSGLYSLSSVVTVPSSSLGTQTYICNVNHKPSNTKVDKRVEPKSCDKTHTCPPCPAPELLGGPDVFLFPPKPKDTLMISRTPEVTCVVVDVSHEDPEVKFNWYVDGVEVHNAKTKPREEQYNSTYRVVSVLTVLHQDWLNGKEYKCKVSNKALPLPEEKTISKAKGQPREPQVYTLPPSREEMTKNQVSLWCLVKGFYPSDIAVEWESNGQPENNYKTTPPVLDSDGSFFLYSKLTVDKSRWQQGNVFSCSVMHEALHNHYTQKSLSLSPG
light 2: QSALTQPRSVSGSPGQSVTISCTGTSPDVGSHAYRSWYQQHPGKAPKLMIYEVSYRPSGVSNRFSGSKSGNTASLTISGLQAEDEADYYCSSYPPSSATVFGAGTKLTVLGQPKAAPSVTLFPPSSEELQANKATLVCLISDFYPGAVTVAWKADSSPVKAGVETTTPSKQSNNKYAASSYLSLTPEQWKSHRSYSCQVTHEGSTVEKTVAPTEC
notes: copies: 1 + 1 + 1 + 1

EC50 [1]: 0.258 mg/L
Kd [2]: 0.004 µM
Kd [3]: 0.0196 µM
Kd [4]: 0.00429 µM
koff [4]: 0.00126 s⁻¹
kon [4]: 294000 M⁻¹ s⁻¹
Kd [5]: 0.0196 µM
koff [5]: 0.00116 s⁻¹
kon [5]: 59200 M⁻¹ s⁻¹
IC50 [6]: 1.99 mg/L
B2: anti-TIGIT×CD96 multispecific molecule BA127 (bispecific antibody, human IgG1, kappa, lambda)
heavy 1: QVQLVQSGAEVKKPGASVKVSCKASGYTFTTYALHWVRQAPGQRLEWMGWINTGSGDTKYSQKFQGRVTITRDTSASTAYMELSSLRSEDTAVYYCARSLGVYYGMDVWGQGTLVTVSSASTKGPSVFPLAPSSKSTSGGTAALGCLVKDYFPEPVTVSWNSGALTSGVHTFPAVLQSSGLYSLSSVVTVPSSSLGTQTYICNVNHKPSNTKVDKRVEPKSCDKTHTCPPCPAPELLGGPDVFLFPPKPKDTLMISRTPEVTCVVVDVSHEDPEVKFNWYVDGVEVHNAKTKPREEQYNSTYRVVSVLTVLHQDWLNGKEYKCKVSNKALPAPIEKTISKAKGQPREPQVYTLPPSREEMTKNQVSLSCAVKGFYPSDIAVEWESNGQPENNYKTTPPVLDSDGSFFLVSKLTVDKSRWQQGNVFSCSVMHEALHNHYTQKSLSLSPG
light 1: not shown
heavy 2: B1 heavy 2
light 2: B1 light 2
notes: Anti-CD96 arm = BA139, anti-TIGIT arm = BA150; copies: 1 + 1 + 1 + 1
